Assay results from US12460006B2, “Antibodies against integrin alpha 11 beta 1” (Momenta Pharmaceuticals, Inc., priority 2019, dated 2025).

How the values were obtained:
[1] = test system: Human Pulmonary Fibroblasts; test: Fibroblast-to-Myofibroblasts Transition (FMT), αSMA expression; format: cell-based; conditions: Yes/No
How it was run: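 Cells seeded at 20,000/well, serum-starved 24 h, then given TGFβ-1 with or without anti-α11 antibodies for 48 h; polyclonal anti-α11 and isotype IgG served as controls. Fixed, permeabilized cells were stained for αSMA and analysed by flow cytometry (single-cell gMFI). Values are normalized to untreated control as % inhibition.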

mouse α11β1 = mouse α11β1 (Mus musculus, UniProt P61622); test: ELISA binding to recombinant mouse α11β1; conditions: binding Yes/No
Sequence of mouse α11β1 (P61622 23-1141 limits assumed): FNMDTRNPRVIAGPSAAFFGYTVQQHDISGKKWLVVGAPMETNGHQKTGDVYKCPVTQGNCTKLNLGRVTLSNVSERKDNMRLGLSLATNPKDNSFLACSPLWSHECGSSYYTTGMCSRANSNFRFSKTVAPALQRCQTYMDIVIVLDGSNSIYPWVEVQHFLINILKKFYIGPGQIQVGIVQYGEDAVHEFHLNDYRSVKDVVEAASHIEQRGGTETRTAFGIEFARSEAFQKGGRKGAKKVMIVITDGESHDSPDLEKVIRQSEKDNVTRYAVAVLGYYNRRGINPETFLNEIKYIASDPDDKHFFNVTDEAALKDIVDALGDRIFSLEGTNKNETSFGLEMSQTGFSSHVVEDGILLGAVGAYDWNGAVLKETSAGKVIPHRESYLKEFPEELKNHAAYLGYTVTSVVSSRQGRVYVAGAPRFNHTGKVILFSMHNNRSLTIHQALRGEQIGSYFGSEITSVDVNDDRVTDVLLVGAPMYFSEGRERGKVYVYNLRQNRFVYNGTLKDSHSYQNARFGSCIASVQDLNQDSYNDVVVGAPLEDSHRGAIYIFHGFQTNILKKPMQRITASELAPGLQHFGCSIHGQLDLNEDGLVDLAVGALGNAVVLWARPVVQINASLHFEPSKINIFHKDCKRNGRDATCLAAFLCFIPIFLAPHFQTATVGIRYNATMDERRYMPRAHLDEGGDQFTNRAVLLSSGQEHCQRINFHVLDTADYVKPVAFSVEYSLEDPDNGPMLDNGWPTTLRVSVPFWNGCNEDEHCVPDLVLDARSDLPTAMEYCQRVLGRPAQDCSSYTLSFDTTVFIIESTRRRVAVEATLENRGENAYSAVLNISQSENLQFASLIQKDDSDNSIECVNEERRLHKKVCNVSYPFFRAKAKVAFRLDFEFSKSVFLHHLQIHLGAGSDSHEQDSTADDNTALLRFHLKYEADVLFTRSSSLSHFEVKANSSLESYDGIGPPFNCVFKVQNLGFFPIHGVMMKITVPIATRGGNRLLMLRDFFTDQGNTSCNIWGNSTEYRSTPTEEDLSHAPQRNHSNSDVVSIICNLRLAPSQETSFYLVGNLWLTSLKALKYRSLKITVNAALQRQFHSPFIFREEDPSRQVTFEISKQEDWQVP
Sequence of mouse α11β1 (P09055 21-728 partner limits assumed): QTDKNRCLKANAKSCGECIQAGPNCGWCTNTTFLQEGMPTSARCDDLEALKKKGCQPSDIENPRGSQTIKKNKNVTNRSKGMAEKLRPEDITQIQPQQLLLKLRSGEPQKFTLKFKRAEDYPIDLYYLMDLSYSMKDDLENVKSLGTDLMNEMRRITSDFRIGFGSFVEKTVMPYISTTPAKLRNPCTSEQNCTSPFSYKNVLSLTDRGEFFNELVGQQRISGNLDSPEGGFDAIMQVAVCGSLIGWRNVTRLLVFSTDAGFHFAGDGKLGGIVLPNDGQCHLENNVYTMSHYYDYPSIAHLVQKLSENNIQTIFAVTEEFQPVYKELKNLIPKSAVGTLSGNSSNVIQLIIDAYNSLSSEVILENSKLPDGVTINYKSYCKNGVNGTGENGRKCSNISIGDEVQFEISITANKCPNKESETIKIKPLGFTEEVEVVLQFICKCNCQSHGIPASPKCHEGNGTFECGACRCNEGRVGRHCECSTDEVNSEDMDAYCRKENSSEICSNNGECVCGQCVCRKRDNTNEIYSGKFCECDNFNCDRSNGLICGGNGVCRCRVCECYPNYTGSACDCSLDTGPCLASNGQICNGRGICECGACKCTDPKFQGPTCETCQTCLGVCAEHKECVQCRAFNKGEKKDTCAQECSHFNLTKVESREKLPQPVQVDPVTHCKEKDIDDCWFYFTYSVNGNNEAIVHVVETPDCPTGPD
How it was run: (§1)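 Recombinant human or mouse α11β1 coated at 0.25 μg/mL overnight at 4° C, blocked with 2% BSA, then antibody titrations bound 1 h at room temperature. Detection used biotinylated anti-IgG followed by streptavidin-HRP and TMB, with absorbance read at 450 nm.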

myofibroblasts (MF) = test: FACS antibody binding to myofibroblasts; set-up: species or system human; conditions: binding Yes/No
How it was run: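 Human pulmonary fibroblasts, serum-starved 24 h then TGFβ-1-treated 72 h to give myofibroblasts, were blocked with heat-inactivated FBS and stained with anti-α11 antibodies, then PE secondary, 30 min each at 4 °C, before 1% PFA fixation. Binding read by flow cytometry as PE geometric MFI of single cells.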

[2] = test system: CHO-K1 cells expressing human α11; test: Cell adhesion inhibition (xCelligence), type I collagen; format: cell-based; conditions: Yes/No
How it was run: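 CHO-K1 cells expressing human α11 (0.6×10^6 cells/mL) were preincubated with mAbs across a concentration range for 20 min at 37° C, then seeded on wells coated with 100 ng/mL type I collagen and blocked with 3% BSA. Impedance-based adhesion was recorded over 6 h, and maximum adhesion was compared with untreated control.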

human α11β1 = human α11β1 (Homo sapiens, UniProt Q9UKX5); test: ELISA binding to recombinant human α11β1; conditions: binding Yes/No
Sequence of human α11β1 (Q9UKX5 23-1141 limits assumed): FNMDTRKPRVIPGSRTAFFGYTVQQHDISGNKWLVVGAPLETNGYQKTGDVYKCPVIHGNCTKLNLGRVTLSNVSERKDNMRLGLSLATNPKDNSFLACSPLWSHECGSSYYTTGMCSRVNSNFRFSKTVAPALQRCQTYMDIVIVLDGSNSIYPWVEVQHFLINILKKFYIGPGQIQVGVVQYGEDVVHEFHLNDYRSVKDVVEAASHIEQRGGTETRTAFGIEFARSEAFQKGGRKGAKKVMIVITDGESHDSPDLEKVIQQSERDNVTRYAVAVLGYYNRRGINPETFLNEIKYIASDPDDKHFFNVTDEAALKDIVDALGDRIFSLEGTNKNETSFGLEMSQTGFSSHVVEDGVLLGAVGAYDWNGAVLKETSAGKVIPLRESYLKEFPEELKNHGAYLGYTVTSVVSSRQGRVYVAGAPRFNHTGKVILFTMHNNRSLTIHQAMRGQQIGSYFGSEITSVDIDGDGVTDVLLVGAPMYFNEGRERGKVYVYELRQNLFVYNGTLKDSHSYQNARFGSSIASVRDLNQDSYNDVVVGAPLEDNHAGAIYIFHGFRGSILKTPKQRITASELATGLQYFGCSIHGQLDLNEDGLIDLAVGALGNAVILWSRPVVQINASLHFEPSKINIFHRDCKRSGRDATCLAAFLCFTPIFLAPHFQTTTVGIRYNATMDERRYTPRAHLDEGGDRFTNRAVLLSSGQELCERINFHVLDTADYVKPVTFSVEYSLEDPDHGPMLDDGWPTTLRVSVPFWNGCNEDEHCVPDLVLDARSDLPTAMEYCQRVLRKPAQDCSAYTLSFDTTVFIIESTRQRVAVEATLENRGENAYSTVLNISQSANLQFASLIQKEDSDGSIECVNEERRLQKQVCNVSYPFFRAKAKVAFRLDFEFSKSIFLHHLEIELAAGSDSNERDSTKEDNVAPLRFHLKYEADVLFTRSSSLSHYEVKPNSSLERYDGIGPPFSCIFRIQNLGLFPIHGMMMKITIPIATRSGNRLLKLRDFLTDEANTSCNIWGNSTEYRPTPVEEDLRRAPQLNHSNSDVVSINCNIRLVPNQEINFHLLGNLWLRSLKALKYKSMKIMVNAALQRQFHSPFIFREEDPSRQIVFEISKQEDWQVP
Sequence of human α11β1 (P05556 21-728 partner limits assumed): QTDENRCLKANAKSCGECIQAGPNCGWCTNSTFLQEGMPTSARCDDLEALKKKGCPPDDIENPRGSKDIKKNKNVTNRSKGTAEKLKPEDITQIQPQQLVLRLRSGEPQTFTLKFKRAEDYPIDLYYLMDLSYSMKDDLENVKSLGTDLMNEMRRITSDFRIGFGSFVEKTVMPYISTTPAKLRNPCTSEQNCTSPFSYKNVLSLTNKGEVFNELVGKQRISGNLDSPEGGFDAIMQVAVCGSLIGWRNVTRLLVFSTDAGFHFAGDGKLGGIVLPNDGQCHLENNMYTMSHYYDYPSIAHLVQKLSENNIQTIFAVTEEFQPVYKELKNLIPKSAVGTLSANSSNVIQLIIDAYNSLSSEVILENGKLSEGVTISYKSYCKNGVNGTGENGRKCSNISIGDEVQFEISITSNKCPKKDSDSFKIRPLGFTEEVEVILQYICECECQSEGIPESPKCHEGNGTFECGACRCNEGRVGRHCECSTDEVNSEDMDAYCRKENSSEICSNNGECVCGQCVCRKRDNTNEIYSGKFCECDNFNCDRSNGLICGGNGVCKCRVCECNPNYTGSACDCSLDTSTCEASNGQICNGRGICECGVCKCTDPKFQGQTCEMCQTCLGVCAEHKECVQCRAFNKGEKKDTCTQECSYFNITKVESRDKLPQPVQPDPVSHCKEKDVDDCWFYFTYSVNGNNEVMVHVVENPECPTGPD
How it was run: as §1

I domain of α11β1 = molecular target: T1, I domain of α11β1 (Homo sapiens, UniProt Q9UKX5); test: ELISA binding to in-house generated I domain of α11β1; conditions: Yes/No
T1 construct: An in-house generated I domain of α11β1 was used; made in house
T1 sequence (Q9UKX5 164-345 limits assumed): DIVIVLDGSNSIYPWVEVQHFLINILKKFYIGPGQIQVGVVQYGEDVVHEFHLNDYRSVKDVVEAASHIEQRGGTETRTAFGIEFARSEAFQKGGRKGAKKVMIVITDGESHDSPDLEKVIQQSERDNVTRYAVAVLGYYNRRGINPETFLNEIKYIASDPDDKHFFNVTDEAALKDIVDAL
How it was run: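 Plate-coated antigen (0.25 μg/mL, overnight 4° C) probed with antibody dilution series 1 h at room temperature, then biotinylated anti-IgG and streptavidin-HRP, 1 h each. TMB substrate 5 min, stopped, absorbance at 450 nm; in-house I domain of α11β1 used as target.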

B1: 5A7: rabbit anti-α11β1 mAb; heavy chain SEQ ID NO: 193, light chain SEQ ID NO: 194 (antibody)
heavy: METGLRWLLLVAVLKGVQCQSLEESGGGLVQPEGSLTLACTASGFSFSSYYYICWVRQAPGTGLEWIGCINTGSDDTHYASWLKGRFTFSKASSTTLTLQMTSLTAADTATYFCARSSGSSDDAYDLWGPGTLVTVSSGQPKAPSVFPLAPCCGDTPSSTVTLGCLVKGYLPEPVTVTWNSGTLTNGVRTFPSVRQSSGLYSLSSVVSVTSSSQPVTCNVAHPATNTKVDKTVAPSTCSKPMCPPPELPGGPSVFIFPPKPKDTLMISRTPEVTCVVVDVSQDDPEVQFTWYINNEQVRTARPPLREQQFNSTIRVVSTLPIAHQDWLRGKEFKCKVHNKALPAPIEKTISKARGQPLEPKVYTMGPPREELSSRSVSLTCMINGFYPSDISVEWEKNGKAEDNYKTTPTVLDSDGSYFLYSKLSVPTSEWQRGDVFTCSVMHEALHNHYTQKSISRSPGK
light: MDTRAPTQLLGLLLLWLPGARCDVVMTQTPASVSEPVGGAVTIKCQASQSIGSNLAWYQHKPGQPPKLLIYFASSLASGVSSRFKGGRSGTQFTLTISDLECADAATYYCHCTYYPLSYVTFGGGTEVVVKGDPVAPTVLIFPPAADQVATGTVTIVCVANKYFPDVTVTWEVDGTTQTTGIENSKTPQNSADCTYNLSSTLTLTSTQYNSHKEYTCKVTQGTTSVVQSFNRGDC
Inhibition of FMT [1]: No | Murine α11β1 ELISA (mouse α11β1): No | MF FACS (myofibroblasts (MF)): Yes | Inhibition of CHO-K1 adhesion to collagen [2]: Yes | Human α11β1 ELISA (human α11β1): Yes | I Domain binding (I domain of α11β1): No

B2: 3B1: rabbit anti-α11β1 mAb; heavy chain SEQ ID NO: 201, light chain SEQ ID NO: 202 (antibody)
heavy: METGLRWLLLVAVLKGVQCQEQLEESGGGLVKPEGSLTLTCKASGFDLSSGYDMCWVRQAPGKGLEWIACIYADYSGSTYYASWVNGRFTISSSTSLNTVDLKMTSLTAADTATYFCARGATGNGGYGYYFNLWGPGTLVTVSSGQPKAPSVFPLAPCCGDTPSSTVTLGCLVKGYLPEPVTVTWNSGTLTNGVRTFPSVRQSSGLYSLSSVVSVTSSSQPVTCNVAHPATNTKVDKTVAPSTCSKPMCPPPELPGGPSVFIFPPKPKDTLMISRTPEVTCVVVDVSQDDPEVQFTWYINNEQVRTARPPLREQQFNSTIRVVSTLPIAHQDWLRGKEFKCKVHNKALPAPIEKTISKARGQPLEPKVYTMGPPREELSSRSVSLTCMINGFYPSDISVEWEKNGKAEDNYKTTPTVLDSDGSYFLYSKLSVPTSEWQRGDVFTCSVMHEALHNHYTQKSISRSPGK
light: MDTRAPTQLLGLLLLWLPGARCADIVMTQTPASVSEPVGGTVTIKCQASQNINSGLAWYQQKPGQPPKLLIYKASTLASGVSSRFKGSGSGTEFTLTISDLECADAATYYCQTYYYSSSSSDNAFGGGTEVVVKGDPVAPTVLIFPPAADQVATGTVTIVCVANKYFPDVTVTWEVDGTTQTTGIENSKTPQNSADCTYNLSSTLTLTSTQYNSHKEYTCKVTQGTTSVVQSFNRGDC
Inhibition of FMT [1]: No | Murine α11β1 ELISA (mouse α11β1): No | MF FACS (myofibroblasts (MF)): Yes | Inhibition of CHO-K1 adhesion to collagen [2]: Yes | Human α11β1 ELISA (human α11β1): Yes | I Domain binding (I domain of α11β1): No

B3: 10-L15: mouse anti-α11β1 mAb; VH SEQ ID NO: 119, VL SEQ ID NO: 120 (antibody, V domains shown)
VH: QVQLQQSGPELVRPGASVKMSCKASGYTFTSYWMHWVKQRPGQGLEWIGMIDPSNSETWLNQKFKDKATLNVDKSSNTAYMQLSSLTSEDSAVYYCARYDGYYDYWGQGTTLTVSS
VL: NIVLTQSPASLAVSLGQRATISCRASESVDSYGNSFMHWYQQKPGQPPKLLIYLASNVESGVPARFSGSGSRTDFTLTIDPVEADDAATYYCQQNNEDPWTFGGGTKLEIK
Inhibition of FMT [1]: No | Murine α11β1 ELISA (mouse α11β1): Yes | MF FACS (myofibroblasts (MF)): No | Inhibition of CHO-K1 adhesion to collagen [2]: No | Human α11β1 ELISA (human α11β1): Yes | I Domain binding (I domain of α11β1): Yes
